Measured values reported in patent US20080072349.

B1: Rubisco Activase derived polypeptide 183H12 (protein)
chain: MVKEDKQTDGDRWRGLAYDTSDDQQDITRGKGMVDSVFQAPMGTGTHHAVLSSYEYVSQGLRQYNLDNMMDGFYIAPAFMDKLVVHITKNFLTLPNIKVPLILGIWGGKGQGKSFQCELVMAKMGINPIMMSAGELESGNAGEPAKLIRQRYREAADLIKKGKMCCLFINDLDAGAGRMGGTTQYTVNNQMVNATLMNIADNPTNVQLPGMYNKEENARVPIICTGNDFSTLYAPLIRDGRMEKFYWAPTREDRIGVCKGIFRTDKIKDEDIVRLVDQFPGQSIDFFGALRARVYDDEVRKFVESLGVEKIGKRLVNSREGPPVFEQPEMTYEKLMEYGNMLVMEQENVKRVQLAETYLSQAALGDANADAIGRGTFYGKTEEKEPSKLE
B2: Rubisco Activase derived polypeptide 301H3 (protein)
chain: MVKEDKQTDGDRWRGLAYDTSDDQQDITRGKGMVDSVFQAPMGTGTHHAVLSSYEYVSQGLRQYNLDNMMDGFYIAPAFMDKLVVHITKNFLTLPNIKVPLILGIWGGKGQGKSFQCELVMAKMGINPIMMSAGELESGNAGEPAKLIRQRYREAADLIKKGKMCCLFINDLDAGAGRMGGTTQYTVNNQMVNATLMNIADNPTNVQLPGMYNKEENARVPIICTGNDFSTLYAPLIRDGRMEKFYWAPTREDRIGICKGIFRTDKIKDEDIVRLVDQFPGQSIDFFGALRARVYDDEVRKFVESLGVENIGKRLVNSREGPPVFEQPEMTYEKLMEYGNMLVMEQENVKRVQLAETYLSQAALGDANADAIGRGTFYGKTEEKEPSKLE
B3: wild type Rubisco Activase (Arabidopsis, short form RCA1) (protein)
chain: MVKEDKQTDGDRWRGLAYDTSDDQQDITRGKGMVDSVFQAPMGTGTHHAVLSSYEYVSQGLRQYNLDNMMDGFYIAPAFMDKLVVHITKNFLTLPNIKVPLILGIWGGKGQGKSFQCELVMAKMGINPIMMSAGELESGNAGEPAKLIRQRYREAADLIKKGKMCCLFINDLDAGAGRMGGTTQYTVNNQMVNATLMNIADNPTNVQLPGMYNKEENARVPIICTGNDFSTLYAPLIRDGRMEKFYWAPTREDRIGVCKGIFRTDKIKDEDIVTLVDQFPGQSIDFFGALRARVYDDEVRKFVESLGVEKIGKRLVNSREGPPVFEQPEMTYEKLMEYGNMLVMEQENVKRVQLAETYLSQAALGDANADAIGRGTFYGKTEEKEPSKLE
B4: Rubisco Activase derived polypeptide 126H4 (protein)
chain: MVKEDKQTDGDRWRGLAYDTSDDQQDITRGKGMVDSVFQAPMGTGTHHAVLSSYEYVSQGLRQYNLDNMMDGFYIAPAFMDKLVVHITKNFLTLPNIKVPLILGIWGGKGQGKSFQCELVMAKMGINPIRMSAGELESGNAGEPAKLIRQRYREAADLIKKGKMCCLFINDLDAGAGRMGGTTQYTVNNQMVNATLMNIADNPTNVQLPGMYNKEENARVPIICTGNDFSTLYAPLIRDGRMEKFYWAPTREDRIGVCKGIFRTDKIKDEDIVTLVDQFPGQSIDFFGALRARVYDDEVRKFVESLGVEKIGKRLVNSREGPPVFEQPEMTYEKLMEYGNMLVMEQENVKRVQLAETYLSQAALGDANADAIGRGTFYGKTEEKEPSKLE
B5: Rubisco Activase derived polypeptide 184B2 (protein)
chain: MVKEDKQTDGDRWRGLAYDTSDDQQDITRGKGMVDSVFQAPMGTGTHHAVLSSYEYVSQGLRQYNLDNMMDGFYIAPAFMDKLVVHITKNFLTLPNIKVPLILGIWGGKGQGKSFQCELVMAKMGINPIMMSAGELESGNAGEPAKLIRQRYREAADLIKKGKMCCLFINDLDAGAGRMGGTTQYTVNNQMVNATLMNIADNPTNVQLPGMYNKEENARVPIICTGNDFSTLYAPLIRDGRMEKFYWAPTREDRIGVCKGIFRTDKIKDEDIVTLVDQFPGQSIDFFGALRARVYDDEVRKFVESLGVENIGKRLVNSREGPPVFEQPEMTYEKLMEYGNMLVMEQENVKRVQLAETYLSQAALGDANADAIGRGTFYGKTEEKEPSKLE
B6: Rubisco Activase derived polypeptide 301C7 (protein)
chain: MVKEDKQTDGDRWRGLAYDTSDDQQDITRGKGMVDSVFQAPMGTGTHHAVLSSYEYVSQGLRQYNLDNMMDGFYIAPAFMDKLVVHITKNFLTLPNIKVPLILGIWGGKGQGKSFQCELVMAKMGINPIMMSAGELESGNAGEPAKLIRQRYREAADLIKKGKMCCLLINDLDAGAGRMGGTTQYTVNNQMVNATLMNIADNPTNVQLPGMYNKEENARVPIICTGNDFSTLYAPLIRDGRMEKFYWAPTREDRIGICKGIFRTDKIKDEDIVTLVDQFPGQSIDFFGALRARVYDDEVRKFVESLGVENIGKRLVNSREGPPVFEQPEMTYEKLMEYGNMLVMEQENVKRVQLAETYLSQAALGDANADAIGRGTFYGKTEEKEPSKLE
B7: Rubisco Activase derived polypeptide 079H6 (protein)
chain: MVKEDKQTDGDRWRGLAYDTSDDQQDITRGKGMVDSVFQAPTGTGTHHAVLSSYEYVSQGLRQYNLDNMMDGFYIAPAFMDKLVVHITKNFLTLPNIKVPLILGIWGGKGQGKSFQCELVMAKMGINPIMISAGELESGNAGEPAKLIRQRYREAADLIKKGKMCCLFINDLDAGAGRMGGTTQYTVNNQMVNATLMNIADNPTNVQLPGMYNKEENARVPIICTGNDFSTLYAPLIRDGRMEKFYWAPTREDRIGVCKGIFRTDKIKDEDIVTLVDQFPGQSIDFFGALRAKVYDDEVRKFVESLGVEKIGKRLVNSREGPPVFEQPEMTYEKLMEYGNMLVMEQENVKRVQLAETYLSQAALGDANADAIGRGTFYGKTEEKEPSKLE
B8: Rubisco Activase derived polypeptide 382D8 (protein)
chain: MVKEDKQTDGDRWRGLAYDTSDDQQDITRGKGMVDSVFQAPMGTGTHHAVLSSYEYVSQGLRQYNLDNMMDGFYIAPAFMDKLVVHITKNFLTLPNIKVPLILGIWGGKGQGKSFQCELVMAKMGINPIMVSAGELESGNAGEPAKLIRQRYREAADLIKKGKMCCLFINDLDAGAGRMGGTTQYTVNNQMVNATLMNIADNPTNVQLPGMYNKEENARVPIICTGNDFSTLYAPLIRDGRMEKFYWAPTREDRIGICKGIFRTDKIKDEDIVTLVDQFPGQSIDFFGALRARVYDDEVRKFVESLGVENIGKRLVNSREGPPVFEQPEMTYEKLMEYGNMLVMEQENVKRVQLAETYLSQAALGDANADAIGRGTFYGKTEEKEPSKLE
B9: Rubisco Activase derived polypeptide 182B11 (protein)
chain: MVKEDKQTDGDRWRGLAYDTSDDQQDITRGKGMVDSVFQAPMGTGTHHAVLSSYEYVSQGLRQYNLDNMMDGFYIAPAFMDKLVVHITKNFLTLPNIKVPLILGIWGGKGQGKSFQCELVMAKMGINPIMISAGELESGNAGEPAKLIRQRYREAADLIKKGKMCCLFINDLDAGAGRMGGTTQYTVNNQMVNATLMNIADNPTNVQLPGMYNKEENARVPIICTGNDFSTLYAPLIRDGRMEKFYWAPTREDRIGVCKGIFRTDKIKDEDIVTLVDQFPGQSIDFFGALRARVYDDEVRKFVESLGVEKIGKRLVNSREGPPVFEQPEMTYEKLMEYGNMLVMEQENVKRVQLAETYLSQAALGDANADAIGRGTFYGKTEEKEPSKLE
B10: Rubisco Activase derived polypeptide 214A4 (protein)
chain: MVKEDKQTDGDRWRGLAYDTSDDQQDITRGKGMVDSVFQAPTGTGTHHAVLSSYEYVSQGLRQYNLDNMMDGFYIAPAFMDKLVVHITKNFLTLPNIKVPLILGIWGGKGQGKSFQCELVMAKMGINPIMMSAGELESGNAGEPAKLIRQRYREAADLIKKGKMCCLFINDLDAGAGRMGGTTQYTVNNQMVNATLMNIADNPTNVQLPGMYNKEENARVPIICTGNDFSTLYAPLIRDGRMEKFYWAPTREDRIGVCKGIFRTDKIKDEDIVRLVDQFPGQSIDFFGALRARVYDDEVRKFVESLGVEKIGKRLVNSREGPPVFEQPEMTYEKLMEYGNMLVMEQENVKRVQLAETYLSQAALGDANADAIGRGTFYGKTEEKEPSKLE
B11: Rubisco Activase derived polypeptide 383A12 (protein)
chain: MVKEDKQTDGDRWRGLAYDTSDDQQDITRGKGMVDSVFQAPMGTGTHHAVLSSYEYVSQGLRQYNLDNMMDGFYIAPAFMDKLVVHITKNFLTLPNIKVPLILGIWGGKGQGKSFQCELVMAKMGINPIMMSAGELESGNAGEPAKLIRQRYREAADLIKKGKMCCLLINDLDAGAGRMGGTTQYTVNNQMVNATLMNIADNPTNVQLPGMYNKEENARVPIICTGNDFSTLYAPLIRDGRMEKFYWAPTREDRIGICKGIFRTDKIKDEDIVRLVDQFPGQSIDFFGALRARVYDDEVRKFVESLGVENIGKRLVNSREGPPVFEQPEMTYEKLMEYGNMLVMEQENVKRVQLAETYLSQAALGDANADAIGRGTFYGKTEEKEPSKLE

Molecular target: purified deactivated Arabidopsis Rubisco (Ribulose-1,5-bisphosphate carboxylase/oxygenase), O03042

| Protein | Activation of deactivated Rubisco assay, 25° C., relative activity (%) | Activity (3rd tier) 25° C. (µmol CO2 min^-1 mg^-1) | Activity (3rd tier) 40° C. (µmol CO2 min^-1 mg^-1) | Rubisco activation under catalytic conditions assay, 25° C., relative activity (%) | specific activity, Rubisco activation under catalytic conditions |
| --- | --- | --- | --- | --- | --- |
| B1 | 109 | 1.05 | 0.857 | 118 | The protein displaying the highest specific activity at either 25 °C or 40 °C was the best variant isolated in the first round, 183H12 |
| B2 | 101 | 0.971 | 0.86 | 92 | – |
| B3 | 100 | 0.96 | 0.634 | 100 | – |
| B4 | – | 0.616 | 0.596 | – | – |
| B5 | – | 1.05 | 0.889 | – | – |
| B6 | 94 | 0.905 | 0.889 | 96 | – |
| B7 | 111 | 1.06 | 0.94 | 105 | – |
| B8 | 105 | 1.01 | 0.91 | 98 | – |
| B9 | – | 0.426 | 0.359 | – | – |
| B10 | 111 | 1.07 | 0.986 | 101 | – |
| B11 | 93 | 0.891 | 0.92 | 96 | – |
